Source: publication PMC8629194

Biological target: wt ACE2_(740)-Fc (M31) (human) (UniProt Q9BYF1)
Assay: SPR

wt ACE2_(740)-Fc (M31) (human), sequence (Q9BYF1 18-740): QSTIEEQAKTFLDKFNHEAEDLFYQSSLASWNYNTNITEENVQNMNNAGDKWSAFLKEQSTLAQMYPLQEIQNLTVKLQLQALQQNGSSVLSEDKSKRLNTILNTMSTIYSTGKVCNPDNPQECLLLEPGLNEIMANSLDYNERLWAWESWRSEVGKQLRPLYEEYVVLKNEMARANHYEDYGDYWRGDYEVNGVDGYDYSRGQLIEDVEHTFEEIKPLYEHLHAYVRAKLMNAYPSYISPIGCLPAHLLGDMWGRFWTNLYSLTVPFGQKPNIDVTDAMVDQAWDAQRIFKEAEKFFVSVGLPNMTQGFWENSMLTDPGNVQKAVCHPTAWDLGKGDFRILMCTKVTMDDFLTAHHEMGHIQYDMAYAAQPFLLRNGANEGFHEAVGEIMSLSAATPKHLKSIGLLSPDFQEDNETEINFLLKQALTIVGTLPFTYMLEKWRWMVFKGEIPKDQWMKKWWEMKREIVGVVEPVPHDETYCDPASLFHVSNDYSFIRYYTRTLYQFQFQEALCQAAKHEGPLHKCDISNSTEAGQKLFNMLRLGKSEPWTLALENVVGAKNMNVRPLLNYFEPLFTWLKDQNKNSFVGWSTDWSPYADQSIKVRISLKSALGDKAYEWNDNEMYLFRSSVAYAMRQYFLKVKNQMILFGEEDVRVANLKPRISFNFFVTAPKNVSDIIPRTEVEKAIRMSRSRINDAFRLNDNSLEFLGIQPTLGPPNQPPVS

SARS-CoV-2 RBDwt (residue 319–541) (from UniProt P0DTC2 319-541) (domain or fragment; other documents disagree on this pair)
Kd: 13.9 nM
